The subject of assay [1] is rat islets. The experiment in a line: Insulin secretion by rat islets with soluble neuroligin-2. The format is cell-based. Conditions: 20 mM glucose, read-out: half-maximal inhibition of insulin secretion. The procedure:
Soluble neuroligin-2 extracellular domain was added to cultures of rat islets at the indicated concentrations. Insulin secretion was then measured (20 mM glucose). […] The soluble protein competes with endogenous, clustered neuroligin for binding to transcellular partners.

In assay [2] the test system is human islet cells. The experiment in a line: GSIS of dissociated human islet cells after clustered rNL2ED-Fc. Conditions: added 4 hours prior to GSIS. It is filed as cell-based. The procedure: FIG. 24 depicts insulin secretion by human islet cells after incubation with cross-linked, clustered rNL2ED-Fc. Indicated volume of solution containing cross-linked rNL2ED-Fc (90 μg/ml) or vehicle alone was added to equal numbers of dissociated human islet cells 4 hours prior to determination of GSIS. Stimulated insulin secretion is shown. […] (n=6 wells, representative of 3 separate experiments).
A recombinant protein with the extracellular domain of neuroligin-2 fused to an IgG Fc domain (rNL2ED-Fc) has been made. In contrast to the peptidomimetic agents, which are modeled on the neurexin binding site, this protein should be able to interact with all extracellular neuroligin-2 binding partners. Chemically cross-linked clusters incorporating this protein are made. Clustered complexes that sufficiently mimic endogenous clustered neuroligin-2 promote β-cell maturation and function to a greater degree than the peptidomimetic-based reagents. […] In contrast, rNL2ED monomers had no effect (not shown).

The source of these data is patent US20230079439A1, “Compositions and Methods for Enhancing Beta Cell Maturation, Health and Function” (THE REGENTS OF THE UNIVERSITY OF CALIFORNIA, priority 2016, published 2023).

B1: Soluble neuroligin-2 extracellular domain: soluble protein that competes with endogenous, clustered neuroligin for binding to transcellular partners (protein, UniProt Q8NFZ4 15-677, looked up)
extracellular domain: QRGGGGPGGGAPGGPGLGLGSLGEERFPVVNTAYGRVRGVRRELNNEILGPVVQFLGVPYATPPLGARRFQPPEAPASWPGVRNATTLPPACPQNLHGALPAIMLPVWFTDNLEAAATYVQNQSEDCLYLNLYVPTEDGPLTKKRDEATLNPPDTDIRDPGKKPVMLFLHGGSYMEGTGNMFDGSVLAAYGNVIVATLNYRLGVLGFLSTGDQAAKGNYGLLDQIQALRWLSENIAHFGGDPERITIFGSGAGASCVNLLILSHHSEGLFQKAIAQSGTAISSWSVNYQPLKYTRLLAAKVGCDREDSAEAVECLRRKPSRELVDQDVQPARYHIAFGPVVDGDVVPDDPEILMQQGEFLNYDMLIGVNQGEGLKFVEDSAESEDGVSASAFDFTVSNFVDNLYGYPEGKDVLRETIKFMYTDWADRDNGEMRRKTLLALFTDHQWVAPAVATAKLHADYQSPVYFYTFYHHCQAEGRPEWADAAHGDELPYVFGVPMVGATDLFPCNFSKNDVMLSAVVMTYWTNFAKTGDPNQPVPQDTKFIHTKPNRFEEVVWSKFNSKEKQYLHIGLKPRVRDNYRANKVAFWLELVPHLHNLHTELFTTTTRLPPYATRWPPRPPAGAPGTRRPPPPATLPPEPEPEPGPRAYDRFPGDSRDYSTELS
modifications: extracellular domain
Take B1: in assay [1], the IC50 was found to be 9 nM.

B2: rNL2ED monomers: non-clustered recombinant neuroligin-2 extracellular domain (protein, UniProt Q62888 15-678, looked up)
extracellular domain: QRGGGGPGGGAPGGPGLGLGSLGEERFPVVNTAYGRVRGVRRELNNEILGPVVQFLGVPYATPPLGARRFQPPEAPASWPGVRNATTLPPACPQNLHGALPAIMLPVWFTDNLEAAATYVQNQSEDCLYLNLYVPTEDGPLTKKRDEATLNPPDTDIRDSGKKPVMLFLHGGSYMEGTGNMFDGSVLAAYGNVIVATLNYRLGVLGFLSTGDQAAKGNYGLLDQIQALRWLSENIAHFGGDPERITIFGSGAGASCVNLLILSHHSEGLFQKAIAQSGTAISSWSVNYQPLKYTRLLAAKVGCDREDSTEAVECLRRKSSRELVDQDVQPARYHIAFGPVVDGDVVPDDPEILMQQGEFLNYDMLIGVNQGEGLKFVEDSAESEDGVSASAFDFTVSNFVDNLYGYPEGKDVLRETIKFMYTDWADRDNGEMRRKTLLALFTDHQWVAPAVATAKLHADYQSPVYFYTFYHHCQAEGRPEWADAAHGDELPYVFGVPMVGATDLFPCNFSKNDVMLSAVVMTYWTNFAKTGDPNQPVPQDTKFIHTKPNRFEEVVWSKFNSKEKQYLHIGLKPRVRDNYRANKVAFWLELVPHLHNLHTELFTTTTRLPPYATRWPPRTPGPGTSGTRRPPPPATLPPESDIDLGPRAYDRFPGDSRDYSTELS
modifications: extracellular domain
notes: non-clustered recombinant neuroligin-2 extracellular domain
As for B2, in assay [2], the “stimulated insulin secretion by human β-cells” value is “had no effect”.
